Test results taken from patent US20210145976A1 (ARO BIOTHERAPEUTICS, published 2021).

B1: SEQ ID NO 34 (designed binder)
chain: MLPAPKNLVVSRVTEDSARLSWTAPDAAFDSFAITYIEWWDVGEAIGLKVPGSERSYDLTGLKPGTEYRVHIQGVKGGNNSYPLDALFTT
notes: FN3 domain
B2: SEQ ID NO 39 (designed binder)
chain: MLPAPKNLVVSRVTEDSARLSWTAPDAAFDSFDIDYREWWTLGEAIVLTVPGSERSYDLTGLKPGTEYYVNIQGVKGGLRSYPLSAIFTT
notes: FN3 domain
B3: SEQ ID NO 45 (designed binder)
chain: MLPAPKNLVVSRVTEDSARLSWTAPDAAFDSFAIYYLESYPEGEAIVLTVPGSERSYDLTGLKPGTEYWVGIDGVKGGTWSSPLSAIFTT
notes: FN3 domain
B4: SEQ ID NO 46 (designed binder)
chain: MLPAPKNLVVSRVTEDSARLSWTAPDAAFDSFTIEYFEFTGTGEAIVLTVPGSERSYDLTGLKPGTEYYVSIYGVKGGLLSAPLSAIFTT
notes: FN3 domain
B5: SEQ ID NO 43 (designed binder)
chain: MLPAPKNLVVSRVTEDSARLSWTAPDAAFDSFYIEYYESYPGGEAIVLTVPGSERSYDLTGLKPGTEYDVYIYGVKGGYWSRPLSAIFTT
notes: FN3 domain
B6: SEQ ID NO 41 (designed binder)
chain: MLPAPKNLVISRVTEDSARLSWTAPDAAFDSFFIYYIESYPAGEAIVLTVPGSERSYDLTGLKPGTEYWVGIDGVKGGRWSTPLSAIFTT
notes: FN3 domain
B7: SEQ ID NO 55 (designed binder)
chain: MLPAPKNLVVSRVTEDSARLSWTAPDAAFDSFIIEYWEFVGYGEAIVLTVPGSERSYDLTGLKPGTEYWVAIYGVKGGDLSKPLSAIFTT
notes: FN3 domain
B8: SEQ ID NO 57 (designed binder)
chain: MLPAPKNLVVSRVTEDSARLSWTAPDAAFDSFSIKYLEWWQDGEAIVLTVPGSERSYDLTGLKPGTEYYVHIAGVKGGYRSYPLSAIFTT
notes: FN3 domain
B9: SEQ ID NO 60 (designed binder)
chain: MLPAPKNLVVSRVTEDSARLSWTAPDAAFDSFTIWYAEAIGHGEAIVLTVPGSERSYDLTGLKPGTEYWVDIWGVKGGQQSKPLSAIFTT
notes: FN3 domain
B10: SEQ ID NO 53 (designed binder)
chain: MLPAPKNLVVSRVTEDSARLSWTAPDAAFDSFFISYIEWWDLGEAIVLTVPGSERSYDLTGLKPGTEYHVEIFGVKGGTQSYPLSAIFTT
notes: FN3 domain
B11: SEQ ID NO 42 (designed binder)
chain: MLPAPKNLVVSRVTEDSARLSWTAPDAAFDSFTIEYYESFYGGEAIVLTVPGSERSYDLTGLKPGTEYYVSIYGVKGGWLSRPLSAIFTT
notes: FN3 domain
B12: SEQ ID NO 48 (designed binder)
chain: MLPAPKNLVVSRVTEDSARLSWTAPDAAFDSFVIEYFEQFNLGEAIVLTVPGSERSYDLTGLKPGTEYWVGIYGVKGGWLSHPLSAIFTT
notes: FN3 domain
B13: SEQ ID NO 56 (designed binder)
chain: MLPAPKNLVVSRVTEDSARLSWTAPDAAFDSFVIEYFEALEGGEAIVLTVPGSERSYDLTGLKPGTEYFVGIYGVKGGPLSKPLSAIFTT
notes: FN3 domain
B14: SEQ ID NO 40 (designed binder)
chain: MLPAPKNLVVSRVTEDSARLSWTAPDAAFDSFVIEYWEYVGHGEAIVLTVPGSERSYDLTGLKPGTEYSVGIYGVKGGSLSRPLSAIFTT
notes: FN3 domain
B15: SEQ ID NO 47 (designed binder)
chain: MLPAPKNLVVSRVTEDSARLSWTAPDAAFDSFTIWYAEALGDGEAIVLTVPGSERSYDLTGLKPGTEYFVDIYGVKGGFWSLPLSAIFTT
notes: FN3 domain
B16: SEQ ID NO 37 (designed binder)
chain: MLPAPKNLVVSRVTEDSARLSWTAPDAAFDSFHIIYTEEEKEGEAIYLRVPGSERSYDLTGLKPGTEYLVEIEGVKGGKRSVPLNASFTT
notes: FN3 domain
B17: SEQ ID NO 35 (designed binder)
chain: MLPAPKNLVVSRVTEDSARLSWTAPDAAFDSFEIAYFEAIWNGEAIYLTVPGSERSYDLTGLKPGTEYQVEIRGVKGGPTSRPLFAWFTT
notes: FN3 domain
B18: SEQ ID NO 38 (designed binder)
chain: MLPAPKNLVVSRVTEDSARLSWTAPDAAFDSFHIAYEESHTTGEAIFLRVPGSERSYDLTGLKPGTEYSVSIEGVKGGHYSPPLTAKFTT
notes: FN3 domain
B19: SEQ ID NO 54 (designed binder)
chain: MLPAPKNLVVSRVTEDSARLSWTAPDAAFDSFQILYQENAFEGEAIVLTVPGSERSYDLTGLKPGTEYWVYIYGVKGGYPSVPLSAIFTT
notes: FN3 domain
B20: SEQ ID NO 33 (designed binder)
chain: MLPAPKNLVVSRVTEDSARLSWTAPDAAFDSFTIQYEELTTVGEAIYLRVPGSERSYDLTGLKPGTEYVVWIEGVKGGLRSNPLGAAFTT
notes: FN3 domain

Legend:
[1] = target: T1, recombinant biotinylated CD71 extracellular domain (Sino Biologics) with an N-terminal 6His tag (human, UniProt P02786 89-760, biotinylated (sites not given)); assay: screening ELISA
T1 construct: extracellular domain; also called hCD71; huCD71
T1 sequence (P02786 other isoform, or with tags, fused parts or gaps): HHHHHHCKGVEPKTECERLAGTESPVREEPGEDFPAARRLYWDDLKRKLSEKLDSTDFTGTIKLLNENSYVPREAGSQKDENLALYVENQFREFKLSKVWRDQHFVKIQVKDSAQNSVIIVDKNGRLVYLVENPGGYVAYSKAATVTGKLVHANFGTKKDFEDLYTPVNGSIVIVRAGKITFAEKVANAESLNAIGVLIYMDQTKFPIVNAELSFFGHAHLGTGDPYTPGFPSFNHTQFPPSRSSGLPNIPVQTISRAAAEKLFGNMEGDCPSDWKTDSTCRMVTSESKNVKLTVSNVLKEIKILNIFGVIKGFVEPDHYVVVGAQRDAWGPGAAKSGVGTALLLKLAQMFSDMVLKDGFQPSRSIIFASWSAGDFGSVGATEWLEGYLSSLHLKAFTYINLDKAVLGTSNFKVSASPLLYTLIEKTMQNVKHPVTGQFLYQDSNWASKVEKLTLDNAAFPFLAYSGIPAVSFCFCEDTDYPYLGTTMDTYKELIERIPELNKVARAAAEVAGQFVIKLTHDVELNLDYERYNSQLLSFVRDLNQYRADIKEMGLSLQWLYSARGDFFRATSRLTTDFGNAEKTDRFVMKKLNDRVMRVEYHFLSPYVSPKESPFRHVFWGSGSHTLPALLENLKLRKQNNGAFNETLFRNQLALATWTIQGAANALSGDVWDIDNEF
Protocol: (§1) To screen for FN3 domains that specifically bind CD71, streptavidin-coated Maxisorp plates (Nunc catalog 436110) were blocked for 1 hour in Starting Block T20 (Pierce) and then coated with biotinylated CD71 (using same antigen as in panning) or negative controls (an unrelated Fc-fused recombinant protein and human serum albumin) for 1 hour. Plates were rinsed with TBST and diluted lysate was applied to plates for 1 hour. Following additional rinses, wells were treated with HRP-conjugated anti-V5 tag antibody (Abcam, ab1325), for 1 hour and then assayed with POD (Roche, 11582950001).

[2] = target: T1, recombinant biotinylated CD71 …; assay: screening ELISA, ratio
Protocol: as §1

CD71 on SK-BR-3 cells [3] = target: T2, CD71 on SK-BR-3 cells (human, UniProt P02786 1-760); assay: cell-based or functional assay
T2 sequence (P02786 whole entry): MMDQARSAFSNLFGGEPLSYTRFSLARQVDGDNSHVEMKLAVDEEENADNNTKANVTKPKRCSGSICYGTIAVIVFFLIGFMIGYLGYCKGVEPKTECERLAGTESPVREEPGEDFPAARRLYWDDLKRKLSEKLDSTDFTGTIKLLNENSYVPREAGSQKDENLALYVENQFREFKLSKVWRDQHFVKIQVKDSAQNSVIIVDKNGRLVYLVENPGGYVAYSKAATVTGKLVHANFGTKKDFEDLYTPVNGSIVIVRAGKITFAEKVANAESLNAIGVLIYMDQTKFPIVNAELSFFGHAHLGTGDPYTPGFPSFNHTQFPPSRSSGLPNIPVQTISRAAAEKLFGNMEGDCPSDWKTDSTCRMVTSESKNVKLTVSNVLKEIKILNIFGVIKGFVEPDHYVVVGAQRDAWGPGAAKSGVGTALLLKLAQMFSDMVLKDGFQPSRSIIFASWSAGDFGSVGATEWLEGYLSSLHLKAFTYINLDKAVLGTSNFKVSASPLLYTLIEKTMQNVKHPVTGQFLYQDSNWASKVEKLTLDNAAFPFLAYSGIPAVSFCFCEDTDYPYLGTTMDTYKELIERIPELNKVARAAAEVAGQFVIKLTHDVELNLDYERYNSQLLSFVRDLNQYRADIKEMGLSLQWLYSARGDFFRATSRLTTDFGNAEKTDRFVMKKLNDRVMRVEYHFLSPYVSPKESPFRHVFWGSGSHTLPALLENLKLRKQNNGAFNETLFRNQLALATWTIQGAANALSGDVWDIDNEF

CD71 on SK-BR-3 cells [4] = target: T2, CD71 on SK-BR-3 cells; assay: cell-based or functional assay; remark: listed apart in the source

Binder	hCD71 [1]	huCD71/Fc [2]	IC50, SKBR-3 cell viability, MMAF conjugate (CD71 on SK-BR-3 cells [3]) [nM]	IC50, SK-BR3 viability, MMAF conjugate, no competitor (CD71 on SK-BR-3 cells [4]) [nM]	IC50, SK-BR3 viability, MMAF conjugate, with 0.6 uM holo-human transferrin (CD71 on SK-BR-3 cells [4]) [nM]
B1	310000	12	0.37	1.3	196
B2	507000	122	0.52	1.2	31.1
B3	1.93e+06	669	8.3	0.05	0.9
B4	113000	37	2.69	3	~100
B5	1.62e+06	199	0.069	0.97	~80
B6	4.27e+06	423	4.7	0.01	0.5
B7	1.11e+07	1440	0.026	0.15	5.5
B8	1.9e+06	113	3.13	0.38	5.3
B9	4.48e+06	691	0.45	0.21	14.4
B10	1.01e+06	110	0.07	3.6	~90
B11	2.83e+06	478	0.19	2.4	~70
B12	943000	337	0.42	1.3	~70
B13	1.13e+07	1510	0.24	0.35	14.7
B14	220000	74.4	3	2.2	~100
B15	265000	50.9	5.9	1.6	~85
B16	1.27e+06	467	0.15	0.7	143
B17	3.24e+06	2130	2.5	0.7	41.5
B18	840000	202	3.82	4	~120
B19	6.99e+06	1130	0.4	0.13	5
B20	518000	46.6	3.27	4.4	~200
